Measurements reported in the supplement of paper PMC10266784.

B1: library; numbered along this chain (parent)
chain: MAAAAAAAAEQQSSNGPVKKSMREKAVERRSVNKEHNSNFKAGYIPIDEDRLHKTGLRGRKGNLAICVIILLFILAVINLIITLVIWAVIRIGPNGCDSMEFHESGLLRFKQVSDMGVIHPLYKSTVGGRRNENLVITGNNQPIVFQQGTTKLSVENNKTSITSDIGMQFFDPRTQNILFSTDYETHEFHLPSGVKSLNVQKASTERITSNATSDLNIKVDGRAIVRGNEGVFIMGKTIEFHMGGNMELKAENSIILNGSVMVSTTRLPSSSSGDQLGSGDWVRYKLCMCADGTLFKVQVTSQNMGCQISDNPCGNTH

Variants of: B1
Assay: SGCB cell-surface expression functional score (HA stain, bin4 vs bin1, normalised to synonymous) (log10 ratio); higher = more cell-surface SGCB (functional)
Procedure, shortened: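 HEK293 cells stably expressing alpha-, gamma- and delta-sarcoglycan received codon-saturation libraries of HA-tagged, YFP-fused human beta-sarcoglycan by lentiviral transduction at MOI <0.1, performed in duplicate. Cells positive for YFP were sorted after 72 hours and cultured for 5–7 days, then stained on ice with Alexa Fluor 647 anti-HA and fixed. Fixed cells were sorted into four 5% intensity bins and amplicon-sequenced, and the log ratio of highest-bin to lowest-bin variant frequency, as a median over codons and transductions, gives the functional score. Per section, synonymous variants were scaled to mean 0, SD 0.5.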

SGCB cell-surface expression functional score (log10): each site, then its substitutions
S204: Y -0.38; T -0.17; C -0.16; P -0.83; A -0.04; F -0.03
T209: H -0.13; C -1.07; L -0.72; K -1.12; P -0.71; D -1.17; I -0.34; V 0.51; R -0.83; Q -0.66; F -0.85; N -0.52; A -0.04; W -0.85; M 0.74; S 0.1
T205: C -0.21; R -1.93; K -2.61; Q -2.06; W -2.65; Y -1.37; N -1.69; L -0.11; V -0.05; I -0.16; M -0.07; S -0.16; H -0.99; F -0.9; D -1.46; A -0.17; E -0.93; P -0.48; G -1.7
L198: F 0.25; I -0.47; P -1.18; R -2.21; M -0.81; V -0.55; S -1.39; E -2.32; Y -1.67; D -2.43; C -0.88; G -1.98; H -0.37; T -2.13; W -0.6; N -1.95; A -1.81; Q -1.42; K -1.58
R207: I -1.03; A -1.05; Q -0.74; M 0.13; H -0.5; Y -0.73; T -0.69; C -0.91; D -1.43; W -0.06; K -0.81; P -1.15; E -2.46; S -1.22; V -0.64; N -0.12; G -1.44; L -0.39; F -1.57
K202: A -0.2; R 0.09; E -0.96; N -0.53; W -0.14; C -0.1; F -1.04; L 0.04; T 0.12; M 0.2; V -0.17; H -1.29; I -0.27; D -1.97; P -0.97; S 0.02; Q 0.17; Y -0.69; G -0.02
G194: A -0.67; M -1.78; K 0.01; E -0.09; F -0.14; Q 0.38; S 0.34; C -0.15; H 0.27; Y -1.13; W 0.23; R -0.07; P -0.58; T -0.71; N 0.05; D 0.64; V -1.31; I -1.66; L -1.02
S197: K -0.3; D -0.76; C 0.14; N -0.61; H -0.72; A -0.6; Y -1.16; R -0.6; Q 0.43; M -1.08; I -0.04; V 1.76; W 0.4; F -2.04; P -2.03; L 0.24; E -0.43; G -0.19; T -0.2
N199: E -0.68; I -0.28; W 1.05; T 0.07; K 0.02; A -0.02; Y -0.67; Q 0.86; F 0.74; H 0.18; L -0.05; C -0.28; P -1.11; D 0.38; R -0.3; G -0.38; V 0.22; M -0.42; S 0.26
A203: E -0.01; S -1.01; Y -2.13; M 0.612; C 0.38; R -1.46; L 0; D -1.81; K -1.01; T -0.59; Q -0.5; G -1.02; P -0.92; W -0.3; I -0.24; H -1.81; F -0.62; V -0.13
V200: P -1.16; H -2.51; R -1.87; Y -1.16; M -0.63; S -1.59; D -1.23; K -2.94; A -0.04; E -2.93; C -1.14; T -2.11; F -1.83; W -1.75; N -3.23; I 0.17; L -0.58; G -1.65; Q -0.73
P192: T -1.46; S -0.21; H -1.15; L -1.17; W -1.19; Y -1.09; N -1.53; I -2.12; C -0.78; Q -2.22; M -1.22; G -0.57; R -1.04; K -1.31; A -1.12; V -1.19; E -1.13; F -0.5; D -1.49
S193: V 0.52; C 0.3; P -0.22; H 1.59; K 0.33; A 0.18; W -1.15; L 0.22; E 1.32; T -0.16; F 0.83; R 0.17; M -0.52; Y -0.19; N 0.79; I 0.78; G 0.24
K196: V -0.07; Q 0.02; R 0.33; E -0.37; T -0.64; H 1.37; L -0.57; N -0.02; D -2.29; A 0.53; C -0.14; I -0.46; M 0.21; S -0.1; P -0.01; F -0.74; G -0.43; Y -1.19; W -0.69
I208: K -1.11; E -2.83; F -0.61; G -1.48; C -1.23; D -1.1; Y -2.38; M -0.33; W -1.04; N -1.22; L 0.3; A -1.44; H -1.66; R -1.44; T -1.57; S -1.11; Q -1.96; V 0.49; P -1.33
Q201: A 0.62; V 0.47; D -0.56; P -0.23; H 0.31; F 0.62; R 0.39; G 0.18; K 0.07; E 0.21; W -0.32; Y -0.31; I 0.46; T -0.09; L -0.33; S -0.35; N -0.7; M 1.02; C 0.43
E206: G -0.37; R -0.66; T 0.4; S 0.16; M 1.59; C -0.71; K -0.41; I -0.47; H 0.42; P -0.42; V 0.45; N 0.66; Y -0.12; Q -0.93; D 0.33; W 0.91; A 1.04; L -0.27; F 0.19
L191: K -0.32; V -0.49; R -1.37; S -1.19; T -1.31; M 0.28; Q -1.1; P -1.47; Y -1.61; N -2.28; W -0.06
V195: N -1.73; H -1.52; R -1.37; I 0.09; Y -2.58; M -0.5; Q -1.76; D -2.29; E -0.23; L -0.39; S -0.44; K -1.88; G -1.83; C 0.64; W 0.45; T -0.23; A 0.11; P -1.1; F -1.74
